Experiments:
[1] = molecular target: 38C13 IgM in 38C13 cell extract; assay: antibody microarray, printed S1C5, cell extract, goat anti-mouse IgM HRP chemiluminescence
[2] = molecular target: purified IgM antibody (38C13); assay: antibody microarray, printed S1C5, goat anti-mouse IgM HRP chemiluminescence

highest extract dilution giving signal (fold dilution (1:x)) [1]: 2000
lowest printed antibody concentration giving signal [1]: 50 µg/mL
lowest IgM concentration giving signal [2]: 0.1 µg/mL
lowest spotted antibody concentration giving signal [2]: 25 µg/mL
Substance: S1C5 anti-idiotype monoclonal antibody (anti-IgM antibody)
